B1: HHH_rd1_0493 (parent)
chain: RDEDEKEKIKEALKRGNEDKAKEIAKRANVSPEEYERLRKEAE
B2: EHEE_rd4_0086 (parent)
chain: EIHIRTNGEEQARKVYKMLAKRNYDVKIEQHNGQWVVTAS

Variants of: B1
Test: folding stability dG (cDNA display proteolysis); higher = more stable
Settings: PBS, room temperature

Variant | folding stability dG
E36F | 1.6 kcal/mol
E36Y | 1.52 kcal/mol
E36V | 1.5 kcal/mol
E36P | 0.261 kcal/mol
E36S | 1.75 kcal/mol
E36D | 2.7 kcal/mol
E36H | 1.75 kcal/mol
E36N | 2.19 kcal/mol
K10N | 0.92 kcal/mol
K10Y | 2.01 kcal/mol
K10R | 2.49 kcal/mol
K10F | 2.11 kcal/mol
K10H | 0.938 kcal/mol
K10Q | 0.854 kcal/mol
E41L | 2.63 kcal/mol
E41K | 1.99 kcal/mol
E41I | 2.38 kcal/mol
E41P | 0.8 kcal/mol
E41V | 2.15 kcal/mol
E41H | 1.7 kcal/mol
E41G | 1.59 kcal/mol
E41R | 2.07 kcal/mol

Variant | folding stability dG
E41D | 2.35 kcal/mol
A25G | 1.3 kcal/mol
A25L | 0.818 kcal/mol
A25I | 0.742 kcal/mol
A25T | 1.01 kcal/mol
A25W | -0.051 kcal/mol
A25P | 0.533 kcal/mol
A25C | 1.54 kcal/mol
A25H | 0.547 kcal/mol
I24D | 0.95 kcal/mol
I24Q | 1.13 kcal/mol
I24T | 1.32 kcal/mol
I24N | 0.704 kcal/mol
I24H | 1.67 kcal/mol
I24L | 2.8 kcal/mol
I24V | 1.87 kcal/mol
I24K | 0.623 kcal/mol
I24E | 1.16 kcal/mol
K40M | 3.2 kcal/mol
K40P | 0.577 kcal/mol
K40L | 3.21 kcal/mol
K40A | 3.15 kcal/mol

Variant | folding stability dG
K40Y | 2.89 kcal/mol
K40F | 2.8 kcal/mol
K40R | 3.33 kcal/mol
E18I | 3.25 kcal/mol
E18R | 2.15 kcal/mol
E18T | 2.84 kcal/mol
E18Q | 2.54 kcal/mol
E18V | 3.19 kcal/mol
K6A | 2.57 kcal/mol
K6Y | 3.4 kcal/mol
K6P | 1.72 kcal/mol
K6N | 2.53 kcal/mol
P32T | 2.61 kcal/mol
P32N | 2.63 kcal/mol
P32Q | 2.8 kcal/mol
P32L | 2.83 kcal/mol
P32Y | 2.7 kcal/mol
P32I | 2.77 kcal/mol
G16H | 2.04 kcal/mol
G16R | 1.97 kcal/mol
G16M | 1.46 kcal/mol
G16K | 1.73 kcal/mol

Variant | folding stability dG
G16F | 1.55 kcal/mol
G16T | 0.598 kcal/mol
E11G | 2.34 kcal/mol
E11N | 2.88 kcal/mol
E11Q | 2.83 kcal/mol
E11I | 2.42 kcal/mol
E11L | 2.71 kcal/mol
E11C | 2.99 kcal/mol
E11Y | 1.67 kcal/mol
A21L | 0.541 kcal/mol
A21F | 0.6 kcal/mol
A21C | 1.29 kcal/mol
A21N | 0.483 kcal/mol
A21E | 0.568 kcal/mol
A21Y | 0.355 kcal/mol
K22M | 3.03 kcal/mol
K22I | 2.8 kcal/mol
K22F | 2.31 kcal/mol
K22L | 3.1 kcal/mol
R37V | 2.24 kcal/mol
R37D | 2.02 kcal/mol
R37W | 2.16 kcal/mol

Variant | folding stability dG
R37K | 2.68 kcal/mol
R37I | 2.44 kcal/mol
R37Q | 2.63 kcal/mol
R37P | -0.529 kcal/mol
E34I | 1.79 kcal/mol
E34N | 0.916 kcal/mol
E34L | 1.56 kcal/mol
E34Q | 1.68 kcal/mol
E34C | 1.85 kcal/mol
E34W | 1.1 kcal/mol
E34S | 1.14 kcal/mol
K26H | 2.74 kcal/mol
K26E | 2.83 kcal/mol
K26P | 0.553 kcal/mol
K26G | 2.31 kcal/mol
K26L | 3.05 kcal/mol
K26N | 2.64 kcal/mol
K26M | 2.91 kcal/mol

Variants of: B2
Test: as above
Settings: PBS, room temperature

Variant | folding stability dG
Q11M | 1.95 kcal/mol
Q11I | 1.84 kcal/mol
Q11Y | 2 kcal/mol
Q11D | 1.67 kcal/mol
I2P | 0.357 kcal/mol
A39F | 2.32 kcal/mol
Q30V | 2.22 kcal/mol
G33H | 1.49 kcal/mol
G33R | 0.801 kcal/mol
G33L | 0.714 kcal/mol
M18T | 1.12 kcal/mol
N23F | 2.79 kcal/mol
N23D | 1.33 kcal/mol
N23S | 1.55 kcal/mol
N7D | 1.82 kcal/mol
N7F | 2.03 kcal/mol
K21T | 1.67 kcal/mol
A12G | 0.134 kcal/mol
A12R | -0.218 kcal/mol
H3L | 2.14 kcal/mol
H3W | 2.12 kcal/mol

Variant | folding stability dG
V15A | 1.12 kcal/mol
V36M | 1.58 kcal/mol
V36H | 1.56 kcal/mol
V36Q | 1.07 kcal/mol
T38A | 0.835 kcal/mol
T38N | 0.617 kcal/mol
T38F | 1.72 kcal/mol
L19I | 0.108 kcal/mol
R5T | 1.97 kcal/mol
R5F | 2.36 kcal/mol
R5E | 1.34 kcal/mol
R5K | 1.75 kcal/mol
K17R | 2.02 kcal/mol
K17P | -0.583 kcal/mol
D25G | 1.22 kcal/mol
Y16N | -0.095 kcal/mol
H31A | 1.67 kcal/mol
H31W | 2.15 kcal/mol
H31V | 2.24 kcal/mol
T6V | 2.55 kcal/mol
T6F | 3.03 kcal/mol

Variant | folding stability dG
T6E | 0.299 kcal/mol
W35V | -0.525 kcal/mol
R13A | 1.03 kcal/mol
G8W | 2.02 kcal/mol
I4T | -0.094 kcal/mol
I4M | 0.855 kcal/mol
E10S | 1.93 kcal/mol
E10N | 1.72 kcal/mol
E10G | 1.64 kcal/mol
E10V | 1.81 kcal/mol
E10H | 1.58 kcal/mol
N32M | 1.64 kcal/mol
R22W | 2.29 kcal/mol
R22F | 2.04 kcal/mol
R22T | 1.16 kcal/mol
S40I | 2.05 kcal/mol
S40E | 1.02 kcal/mol
S40D | 0.806 kcal/mol
E1M | 2.29 kcal/mol
